B1: attI1ds (dsDNA)
DNA 1: ACGCCGTGGGTCGATGTTTGATGTTATGGAGCAGCAACGATGTTACGCAGCAGGGCAGTCGCCCTAAAACAAAGTTAGGTGGCTCAATGAGCATCATTGC
DNA 2: GCAATGATGCTCATTGAGCCACCTAACTTTGTTTTAGGGCGACTGCCCTGCTGCGTAACATCGTTGCTGCTCCATAACATCAAACATCGACCCACGGCGT
B2: attC top strand (attCts) (ssDNA)
DNA: CGCCCGTCTAACAATTCGTTCAAGCCGACGTTGCTTCGTGGCGGCGCTTGCGTGCTACGCTAAGCTTCGCACGCCGCTTGCCACTGCGCACCGCGGCTTAACTCAGGCGTTAGATGCACT
B3: attC bottom strand (attCbs) (ssDNA)
DNA: AGTGCATCTAACGCCTGAGTTAAGCCGCGGTGCGCAGTGGCAAGCGGCGTGCGAAGCTTAGCGTAGCACGCAAGCGCCGCCACGAAGCAACGTCGGCTTGAACGAATTGTTAGACGGGCG

Target: T1, IntI1(his)6 wild type (Pseudomonas aeruginosa Pa695 (class 1 …, UniProt Q7BP41 1-337))
T1 sequence: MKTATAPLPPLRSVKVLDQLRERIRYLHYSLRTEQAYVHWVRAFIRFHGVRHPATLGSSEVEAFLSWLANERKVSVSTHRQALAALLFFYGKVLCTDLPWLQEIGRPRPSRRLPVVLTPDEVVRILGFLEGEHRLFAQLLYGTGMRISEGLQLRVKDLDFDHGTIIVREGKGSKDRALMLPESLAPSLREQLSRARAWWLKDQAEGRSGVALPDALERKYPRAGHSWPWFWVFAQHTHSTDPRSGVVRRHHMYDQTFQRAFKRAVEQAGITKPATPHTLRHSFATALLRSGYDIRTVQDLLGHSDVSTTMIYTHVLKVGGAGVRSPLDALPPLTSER
Experiment: EMSA; 20 min at 4 C in 20 ul, 0.1 pmol DNA, 1-10 pmol IntI1, 1% agarose gel at 4 C; filter wash buffer 20 mM HEPES pH 7.5, 10 mM MnCl2, 30 mM NaCl (pre-wash 10 mM NaCl, 100 ug/ml calf thymus DNA); exact binding buffer not given
Settings: protein: recombinant, tags: C-terminal His6 (pET101D-Topo), label: 5' 32P

Row | Binder | binding result (blunt) | binding result (single strand)
1 | B1 | binds | –
2 | B2 | – | no binding
3 | B3 | – | binds

From PMC2117344, “A New In Vitro Strand Transfer Assay for Monitoring Bacterial Class 1 Integron Recombinase IntI1 Activity”
